Experimental findings from patent publication US20260167699A1 (Chugai, published 2026) are described below.

The test deals with T1, FcγRIIIa (human, UniProt P08637 17-208).
T1 construct: extracellular domain; also called 3a; FcγRIIIa extracellular domain
In words: SPR (Biacore).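 Note: antibody variants captured on an SPR sensor chip, with FcγRIIIa passed over as analyte in HBS-EP+ buffer at 25 °C.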 A general note: Surface plasmon resonance follows binding to a sensor surface in real time, without labels.

T1 sequence (P08637 other isoform, or with tags, fused parts or gaps): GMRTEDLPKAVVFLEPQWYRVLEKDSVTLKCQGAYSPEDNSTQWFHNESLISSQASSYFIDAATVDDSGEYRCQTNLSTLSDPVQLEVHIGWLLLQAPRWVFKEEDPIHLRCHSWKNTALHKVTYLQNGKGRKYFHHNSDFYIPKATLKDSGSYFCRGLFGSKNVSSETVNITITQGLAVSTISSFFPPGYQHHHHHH

B1: GpH7-A5/GpH7-B3 variant P271_15Y/GpL16-k0 (antibody, human IgG1, kappa)
heavy 1: not shown
heavy 2: not shown
light: DIVMTQSPLSLPVTPGEPASISCQASESLVHSNRNTYLHWYLQKPGQSPQLLIYKVSNRFSGVPDRFSGSGSGTDFTLKISRVEAEDVGVYYCSQNTHVPPTFGQGTKVEIERTVAAPSVFIFPPSDEQLKSGTASVVCLLNNFYPREAKVQWKVDNALQSGNSQESVTEQDSKDSTYSLSSTLTLSKADYEKHKVYACEVTHQGLSSPVTKSFNRGEC
notes: copies: 1 + 1 + 2
For B1, the “He/Con 3a” value is 62.7 % of GpH7-A5/GpH7-B3/GpL16-k0.

B2: GpH7-A5/GpH7-B3 variant Q295_09D/GpL16-k0 (antibody, human IgG1, kappa)
heavy 1: not shown
heavy 2: not shown
light: B1 light
notes: copies: 1 + 1 + 2
As for B2, the “He/Con 3a” value is 85.6 % of GpH7-A5/GpH7-B3/GpL16-k0.

B3: GpH7-A5/GpH7-B3 variant P331_12R/GpL16-k0 (antibody, human IgG1, kappa)
heavy 1: not shown
heavy 2: not shown
light: B1 light
notes: copies: 1 + 1 + 2
Consider B3, for which the “He/Con 3a” value is 64.8 % of GpH7-A5/GpH7-B3/GpL16-k0.

B4: GpH7-A5/GpH7-B3 variant P329_02A/GpL16-k0 (antibody, human IgG1, kappa)
heavy 1: not shown
heavy 2: not shown
light: B1 light
notes: copies: 1 + 1 + 2
As for B4, the “He/Con 3a” value is 55.2 % of GpH7-A5/GpH7-B3/GpL16-k0.

B5: GpH7-A5/GpH7-B3 variant P331_18N/GpL16-k0 (antibody, human IgG1, kappa)
heavy 1: not shown
heavy 2: not shown
light: B1 light
notes: copies: 1 + 1 + 2
Regarding B5, the “He/Con 3a” value is 67.1 % of GpH7-A5/GpH7-B3/GpL16-k0.

B6: GpH7-A5/GpH7-B3 variant P271_19Q/GpL16-k0 (antibody, human IgG1, kappa)
heavy 1: not shown
heavy 2: not shown
light: B1 light
notes: copies: 1 + 1 + 2
Consider B6, for which the “He/Con 3a” value was 84.6 % of GpH7-A5/GpH7-B3/GpL16-k0.

B7: GpH7-A5/GpH7-B3 variant P271_20W/GpL16-k0 (antibody, human IgG1, kappa)
heavy 1: not shown
heavy 2: not shown
light: B1 light
notes: copies: 1 + 1 + 2
As for B7, the “He/Con 3a” value is 77.8 % of GpH7-A5/GpH7-B3/GpL16-k0.

B8: GpH7-A5/GpH7-B3 variant Q295_13S/GpL16-k0 (antibody, human IgG1, kappa)
heavy 1: not shown
heavy 2: not shown
light: B1 light
notes: copies: 1 + 1 + 2
Regarding B8, the “He/Con 3a” value was 90.4 % of GpH7-A5/GpH7-B3/GpL16-k0.

B9: GpH7-A5/GpH7-B3 variant P331_10E/GpL16-k0 (antibody, human IgG1, kappa)
heavy 1: not shown
heavy 2: not shown
light: B1 light
notes: copies: 1 + 1 + 2
For the molecule B9, the “He/Con 3a” value was 68.7 % of GpH7-A5/GpH7-B3/GpL16-k0.

B10: GpH7-A5/GpH7-B3 variant P331_02A/GpL16-k0 (antibody, human IgG1, kappa)
heavy 1: not shown
heavy 2: not shown
light: B1 light
notes: copies: 1 + 1 + 2
For B10, the “He/Con 3a” value is 82.5 % of GpH7-A5/GpH7-B3/GpL16-k0.

B11: GpH7-A5/GpH7-B3 variant Q295_07I/GpL16-k0 (antibody, human IgG1, kappa)
heavy 1: not shown
heavy 2: not shown
light: B1 light
notes: copies: 1 + 1 + 2
Regarding B11, the “He/Con 3a” value is 101 % of GpH7-A5/GpH7-B3/GpL16-k0.

B12: GpH7-A5/GpH7-B3 variant P331_09D/GpL16-k0 (antibody, human IgG1, kappa)
heavy 1: not shown
heavy 2: not shown
light: B1 light
notes: copies: 1 + 1 + 2
Regarding B12, the “He/Con 3a” value is 71.6 % of GpH7-A5/GpH7-B3/GpL16-k0.

B13: GpH7-A5/GpH7-B3 variant P331_03V/GpL16-k0 (antibody, human IgG1, kappa)
heavy 1: not shown
heavy 2: not shown
light: B1 light
notes: copies: 1 + 1 + 2
As to B13, the “He/Con 3a” value was 66.9 % of GpH7-A5/GpH7-B3/GpL16-k0.

B14: GpH7-A5/GpH7-B3 variant P331_04F/GpL16-k0 (antibody, human IgG1, kappa)
heavy 1: not shown
heavy 2: not shown
light: B1 light
notes: copies: 1 + 1 + 2
Regarding B14, the “He/Con 3a” value was 70.7 % of GpH7-A5/GpH7-B3/GpL16-k0.

B15: GpH7-A5/GpH7-B3 variant P271_16H/GpL16-k0 (antibody, human IgG1, kappa)
heavy 1: not shown
heavy 2: not shown
light: B1 light
notes: copies: 1 + 1 + 2
For B15, the “He/Con 3a” value is 70.3 % of GpH7-A5/GpH7-B3/GpL16-k0.

B16: GpH7-A5/GpH7-B3 variant Q295_12R/GpL16-k0 (antibody, human IgG1, kappa)
heavy 1: not shown
heavy 2: not shown
light: B1 light
notes: copies: 1 + 1 + 2
On to B16, for which the “He/Con 3a” value was 73.2 % of GpH7-A5/GpH7-B3/GpL16-k0.

B17: GpH7-A5/GpH7-B3 variant Q295_05P/GpL16-k0 (antibody, human IgG1, kappa)
heavy 1: not shown
heavy 2: not shown
light: B1 light
notes: copies: 1 + 1 + 2
Regarding B17, the “He/Con 3a” value was 74.4 % of GpH7-A5/GpH7-B3/GpL16-k0.

B18: GpH7-A5/GpH7-B3 variant P331_20W/GpL16-k0 (antibody, human IgG1, kappa)
heavy 1: not shown
heavy 2: not shown
light: B1 light
notes: copies: 1 + 1 + 2
For B18, the “He/Con 3a” value is 71.9 % of GpH7-A5/GpH7-B3/GpL16-k0.

B19: GpH7-A5/GpH7-B3 variant Q295_03V/GpL16-k0 (antibody, human IgG1, kappa)
heavy 1: not shown
heavy 2: not shown
light: B1 light
notes: copies: 1 + 1 + 2
On to B19, for which the “He/Con 3a” value is 86.2 % of GpH7-A5/GpH7-B3/GpL16-k0.

B20: GpH7-A5/GpH7-B3 variant Q295_14T/GpL16-k0 (antibody, human IgG1, kappa)
heavy 1: not shown
heavy 2: not shown
light: B1 light
notes: copies: 1 + 1 + 2
In the case of B20, the “He/Con 3a” value was 120 % of GpH7-A5/GpH7-B3/GpL16-k0.

B21: GpH7-A5/GpH7-B3 variant P271_18N/GpL16-k0 (antibody, human IgG1, kappa)
heavy 1: not shown
heavy 2: not shown
light: B1 light
notes: copies: 1 + 1 + 2
As to B21, the “He/Con 3a” value was 94 % of GpH7-A5/GpH7-B3/GpL16-k0.

B22: GpH7-A5/GpH7-B3 variant Q295_08L/GpL16-k0 (antibody, human IgG1, kappa)
heavy 1: not shown
heavy 2: not shown
light: B1 light
notes: copies: 1 + 1 + 2
Consider B22, for which the “He/Con 3a” value was 120 % of GpH7-A5/GpH7-B3/GpL16-k0.

B23: GpH7-A5/GpH7-B3 variant Q295_01G/GpL16-k0 (antibody, human IgG1, kappa)
heavy 1: not shown
heavy 2: not shown
light: B1 light
notes: copies: 1 + 1 + 2
With B23, the “He/Con 3a” value is 76.6 % of GpH7-A5/GpH7-B3/GpL16-k0.

B24: GpH7-A5/GpH7-B3 variant Q295_15Y/GpL16-k0 (antibody, human IgG1, kappa)
heavy 1: not shown
heavy 2: not shown
light: B1 light
notes: copies: 1 + 1 + 2
B24: the “He/Con 3a” value is 81.5 % of GpH7-A5/GpH7-B3/GpL16-k0.

B25: GpH7-A5/GpH7-B3 variant P331_16H/GpL16-k0 (antibody, human IgG1, kappa)
heavy 1: not shown
heavy 2: not shown
light: B1 light
notes: copies: 1 + 1 + 2
For the molecule B25, the “He/Con 3a” value was 73.4 % of GpH7-A5/GpH7-B3/GpL16-k0.

B26: GpH7-A5/GpH7-B3 variant P331_08L/GpL16-k0 (antibody, human IgG1, kappa)
heavy 1: not shown
heavy 2: not shown
light: B1 light
notes: copies: 1 + 1 + 2
With B26, the “He/Con 3a” value was 66 % of GpH7-A5/GpH7-B3/GpL16-k0.

B27: GpH7-A5/GpH7-B3 variant P331_11K/GpL16-k0 (antibody, human IgG1, kappa)
heavy 1: not shown
heavy 2: not shown
light: B1 light
notes: copies: 1 + 1 + 2
Consider B27, for which the “He/Con 3a” value is 61.8 % of GpH7-A5/GpH7-B3/GpL16-k0.

B28: GpH7-A5/GpH7-B3 variant P331_06M/GpL16-k0 (antibody, human IgG1, kappa)
heavy 1: not shown
heavy 2: not shown
light: B1 light
notes: copies: 1 + 1 + 2
As to B28, the “He/Con 3a” value is 68.4 % of GpH7-A5/GpH7-B3/GpL16-k0.

B29: GpH7-A5/GpH7-B3 variant Q295_04F/GpL16-k0 (antibody, human IgG1, kappa)
heavy 1: not shown
heavy 2: not shown
light: B1 light
notes: copies: 1 + 1 + 2
B29: the “He/Con 3a” value is 75.1 % of GpH7-A5/GpH7-B3/GpL16-k0.

B30: GpH7-A5/GpH7-B3 variant Q295_11K/GpL16-k0 (antibody, human IgG1, kappa)
heavy 1: not shown
heavy 2: not shown
light: B1 light
notes: copies: 1 + 1 + 2
As for B30, the “He/Con 3a” value was 81.8 % of GpH7-A5/GpH7-B3/GpL16-k0.

B31: GpH7-A5/GpH7-B3 variant P331_15Y/GpL16-k0 (antibody, human IgG1, kappa)
heavy 1: not shown
heavy 2: not shown
light: B1 light
notes: copies: 1 + 1 + 2
On to B31, for which the “He/Con 3a” value is 74.9 % of GpH7-A5/GpH7-B3/GpL16-k0.

B32: GpH7-A5/GpH7-B3 variant P331_14T/GpL16-k0 (antibody, human IgG1, kappa)
heavy 1: not shown
heavy 2: not shown
light: B1 light
notes: copies: 1 + 1 + 2
Take B32: the “He/Con 3a” value is 67.8 % of GpH7-A5/GpH7-B3/GpL16-k0.

B33: GpH7-A5/GpH7-B3 variant P331_07I/GpL16-k0 (antibody, human IgG1, kappa)
heavy 1: not shown
heavy 2: not shown
light: B1 light
notes: copies: 1 + 1 + 2
Consider B33, for which the “He/Con 3a” value is 60.4 % of GpH7-A5/GpH7-B3/GpL16-k0.

B34: GpH7-A5/GpH7-B3 variant P331_13S/GpL16-k0 (antibody, human IgG1, kappa)
heavy 1: not shown
heavy 2: not shown
light: B1 light
notes: copies: 1 + 1 + 2
As for B34, the “He/Con 3a” value is 80.9 % of GpH7-A5/GpH7-B3/GpL16-k0.

B35: GpH7-A5/GpH7-B3 variant P329_10E/GpL16-k0 (antibody, human IgG1, kappa)
heavy 1: not shown
heavy 2: not shown
light: B1 light
notes: copies: 1 + 1 + 2
For the molecule B35, the “He/Con 3a” value is 52.7 % of GpH7-A5/GpH7-B3/GpL16-k0.

B36: GpH7-A5/GpH7-B3 variant Q295_02A/GpL16-k0 (antibody, human IgG1, kappa)
heavy 1: not shown
heavy 2: not shown
light: B1 light
notes: copies: 1 + 1 + 2
On to B36, for which the “He/Con 3a” value is 111 % of GpH7-A5/GpH7-B3/GpL16-k0.

B37: GpH7-A5/GpH7-B3 variant P329_09D/GpL16-k0 (antibody, human IgG1, kappa)
heavy 1: not shown
heavy 2: not shown
light: B1 light
notes: copies: 1 + 1 + 2
For the molecule B37, the “He/Con 3a” value was 52.5 % of GpH7-A5/GpH7-B3/GpL16-k0.

B38: GpH7-A5/GpH7-B3 variant P331_19Q/GpL16-k0 (antibody, human IgG1, kappa)
heavy 1: not shown
heavy 2: not shown
light: B1 light
notes: copies: 1 + 1 + 2
As to B38, the “He/Con 3a” value is 73.9 % of GpH7-A5/GpH7-B3/GpL16-k0.

B39: GpH7-A5/GpH7-B3 variant Q295_10E/GpL16-k0 (antibody, human IgG1, kappa)
heavy 1: not shown
heavy 2: not shown
light: B1 light
notes: copies: 1 + 1 + 2
Turning to B39, the “He/Con 3a” value is 105 % of GpH7-A5/GpH7-B3/GpL16-k0.

B40: GpH7-A5/GpH7-B3 variant Q295_06M/GpL16-k0 (antibody, human IgG1, kappa)
heavy 1: not shown
heavy 2: not shown
light: B1 light
notes: copies: 1 + 1 + 2
B40: the “He/Con 3a” value was 100 % of GpH7-A5/GpH7-B3/GpL16-k0.
